{"source": "patent US20210032364A1", "about": "(NOMOCAN PHARMACEUTICALS, published 2021)", "key": {"NMC-P1 peptide": {"target": "T1, NMC-P1 peptide (human)", "T1 construct": "Peptide corresponding to amino acids 1-15 of HDM2", "T1 peptide": "MCNTNMSVPTDGAVT", "assay": "peptide-ELISA, plate-bound peptide", "procedure": "(§1) Peptide-ELISA Methodology: 5 μg/ml of NMC-P1, NMC-P2 or NMC-P3 peptide antigen was dried onto a 96-well ELISA plate overnight. Plates were then blocked with 5% BSA in 1× phosphate-buffered saline (PBS) (100 μl/well) for 2 hours at room temperature. Microplate wells were then washed 5 times with 300 μl of ice cold lx PBS. […] After 2 hours, wells were washed 5 times with 300 μl ice-cold PBS/well and 100 μl secondary antibody (HRP-labeled Goat anti-Mouse F(ab′)2 H&L cross-adsorbed secondary antibody (HRP-GaM F(ab′)2), ThermoFisher, Cat. No. A24524) diluted 1:2500 to 1:5000 in PBS-1% BSA solution were added and the incubation continued at room temperature. After 1 hour, the wells were washed again 5 times with 200 μl of ice-cold PBS and 50 μL of the TMB Substrate Solution (1-StepTM Ultra TMB-ELISA, ThermoFisher, Cat. No. 34028) were added to each well and color was allowed to develop for 30 minutes at room temperature. The reaction was stopped by addition of 50 μL of stop solution (ThermoFisher, Cat. No. SSO4) to each well and absorbance of each well was read immediately for optical density (OD) at 450 nm."}, "NMC-P2 peptide [1]": {"target": "T2, NMC-P2 peptide (human)", "T2 construct": "Peptide corresponding to amino acids 15-25 of HDM2", "T2 peptide": "TTSQIPASEQE", "assay": "peptide-ELISA, plate-bound peptide", "procedure": "as §1"}, "NMC-P3 peptide [2]": {"target": "T3, NMC-P3 peptide (human)", "T3 peptide": "CPVCRQPIQMIVLTYFP", "assay": "peptide-ELISA, plate-bound peptide", "procedure": "as §1"}, "NMC-P3 peptide [3]": {"target": "T3, NMC-P3 peptide", "assay": "competition peptide-ELISA, soluble peptide pre-incubated with the antibody", "procedure": "as §1"}, "[4]": {"target": "T4, recombinant HDM2 protein (GST tagged, Abcam, Cat. No. ab188727) (human, UniProt Q00987 1-491)", "T4 construct": "Bought protein, called full-length, about 83 kD with the tag; also called recombinant full-length HDM2 protein; recombinant HDM2-GST protein; not shown: GST tag at the N-terminus", "T4 sequence (Q00987 whole entry)": "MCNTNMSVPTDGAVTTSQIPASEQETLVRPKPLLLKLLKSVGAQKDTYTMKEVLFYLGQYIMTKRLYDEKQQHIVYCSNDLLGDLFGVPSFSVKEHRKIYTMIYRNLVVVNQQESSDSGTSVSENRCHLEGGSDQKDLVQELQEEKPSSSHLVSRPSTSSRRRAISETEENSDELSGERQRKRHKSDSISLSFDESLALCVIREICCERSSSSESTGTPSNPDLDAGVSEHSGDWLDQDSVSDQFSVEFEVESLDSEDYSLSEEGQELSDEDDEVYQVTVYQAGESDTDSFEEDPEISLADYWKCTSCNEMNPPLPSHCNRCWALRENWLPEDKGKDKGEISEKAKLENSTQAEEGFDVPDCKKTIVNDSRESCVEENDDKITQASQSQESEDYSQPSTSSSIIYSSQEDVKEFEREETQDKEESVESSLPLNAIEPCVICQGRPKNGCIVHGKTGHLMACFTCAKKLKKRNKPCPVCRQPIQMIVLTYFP", "assay": "immunoblot", "procedure": "Western Blot: As for immunoblots, 1 μg/well of recombinant HDM2 protein (GST tagged, Abcam, Cat. No. ab188727) was separated on 8-16% sodium dodecyl sulfate (SDS) polyacrylamide gel and proteins were then transferred to polyvinylidene difluoride (PVDF) membrane. […] The membrane was then washed×3 times (10 minutes each) and incubated for 1 hour with corresponding HRP-conjugated secondary antibody (Goat anti-Mouse IgG (H&L), F(ab′)2 Frag Cross-adsorbed HRP (HRP-GaM F(ab′)2), ThermoFisher, Cat. No. A24524) diluted 1:5000 in 1% BSA-PBS. The membrane was then washed×3 times and incubated with Pierce ECL Plus Western Blotting Substrate (ThermoFisher, Cat. No. #32132) for 10 min before developing on a LICOR Scanner."}, "NMC-P2 peptide [5]": {"target": "T2, NMC-P2 peptide", "assay": "peptide competition in cell-ELISA on intact MIA PaCa-2 cells"}}, "data": [{"binder": "monoclonal antibody NMC-204 (antibody, IgG3, V domains shown) VH: EVQLQESGSVLVRPGASVKLSCKASGDTLSGSWMHWAMQRPGQGLEWIGEIHLNRGTTNYNEKFKGKATVTVDTSSSTAYVDLSSLTSEDSAVYYCARSPGFAYWGQGTLVTVSA VL: GIVMTQAAPSVPVTPGESVSISCRSSKSLLHSNGNSYLYWFLQRPGQSPQLLIYRMSNLASGVPDRFSGSGSGTAFTLRITRVEAEDVGVYYCMQHLEYPFTFGSGTKLEIK", "values": [{"measurement": "binding result", "setting": "NMC-P1 peptide", "result": "no binding"}, {"measurement": "binding result", "setting": "NMC-P2 peptide [1]", "result": "binds"}, {"measurement": "binding result", "setting": "NMC-P3 peptide [2]", "result": "no binding"}]}, {"binder": "monoclonal antibody NMC-103 (antibody, IgG1, V domains shown) VH: EVQLQESGGGLVQPGGSLRLSCTTSGFTFTHYYMSWVRQPPGKALEWLGFIRNKAKGYTAEYSASVKGRFTISRDNSQSILYLQMNTLRPEDSATYYCARDIGDNWGQGTLVTVSS VL: DIVMTQAAFSNPVTLGTSASISCRSSKNLLHSNGITYLYWYLQRPGQSPQLLISRVSNLASGVPNRFSGSESGTDFTLRISRVEAEDVGVYFCAQLLELPYTFGGGTKLEIK", "values": [{"measurement": "binding result", "setting": "NMC-P1 peptide", "result": "binds"}, {"measurement": "binding result", "setting": "NMC-P2 peptide [1]", "result": "no binding"}, {"measurement": "binding result", "setting": "NMC-P3 peptide [3]", "result": "no binding (tested: 10 µl/ml)"}]}, {"binder": "monoclonal antibody NMC-303 (antibody, V domains shown) VH: QVQLQQPGAELVKPGASVKLSCKASGYTFTSYYMYWVKQRPGQGLEWIGGINPRNGGTNFNEKFKNKATLTADKSSTTAYMQLSSLTSEDSAVYYCTRSGYYAMDYWGQGTSVTVSS VL: DIQMTQTTSSLSASLGDRVTISCRASQDISNFLNWYQQKPDGTVKLLIYYTSRLHSGVPSRFSGSGSGTDYSLTISNLEQEDIATYFCQQGNTLPRTFGGGTKLEIK", "values": [{"measurement": "binding result", "setting": "[4]", "result": "binds"}, {"measurement": "binding result", "setting": "NMC-P3 peptide [2]", "result": "binds"}, {"measurement": "binding result", "setting": "NMC-P2 peptide [5]", "result": "no binding"}]}]}
